In the supplement of paper PMC10567573 one finds protein stability index data, which are given here for 53 sequences.

A short description of this data set: protein stability index of a GFP-peptide fusion (GPS, HEK-293T) (PSI 1-6); higher = more stable.
Where [1] appears, read: treatment: DMSO, c terminus: a fixed tail appended.
Where [2] appears, read: treatment: MLN4924 1 uM, 8 h, c terminus: a fixed tail appended.

± gives the standard deviation.
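Further: 24-mer peptide tiles fused after GFP, lentivirally expressed, FACS-sorted into six equal bins by GFP/DsRed ratio, decoded by Illumina sequencing, PSI is the read-weighted mean bin number.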

For AAAGAVGLERRDWSPSPPATPEQG [SPDEF], the protein stability index turned out to be 5.09 ± 0.26 under setting [1] and 5.18 ± 0.17 under setting [2].
MQVLGPEDLQSIIYKLEEHEEFFP [CEP70]: the protein stability index reads like this: under setting [1], 2.99 ± 0.53; under setting [2], 3.41 ± 0.39.
Turning to QDRFRIELSEEGAEGRVVGRKDIT [MOSPD3], the protein stability index stood at 4.91 ± 0.23 under setting [1] and 5.1 ± 0.31 under setting [2].
For THLEGDTVQIICNTGYRLQNNENN [CFHR2] the same measures were 3.79 ± 0.22 and 3.87 ± 0.14.
Turning to LEFYRYYQQLKLEGPGEQETKLDL [SLC29A1], the protein stability index under setting [1] was determined as 2.953 ± 0.027 and the protein stability index under setting [2] turned out to be 3.11 ± 0.35.
WGPLQDSLEHTLRVAIAHYQDDPD [TSPAN10]: the protein stability index turned out to be 3.54 ± 0.28 under setting [1] and 3.69 ± 0.22 under setting [2].
On to GRSSMGTGLSGGKRPSQEEDTQSI [CRY1], for which the protein stability index runs as follows: under setting [1], 5.51 ± 0.17; under setting [2], 5.37 ± 0.29.
Regarding HVKEQLPCAGLNCQALDANLDANL [TLE6], the protein stability index is 4.42 ± 0.19 under setting [1] and 4.64 ± 0.24 under setting [2].
For PSPPAAPSVADNLLASSDAALSAS [SERTAD1], the protein stability index under setting [1] is 5.25 ± 0.21 and the protein stability index under setting [2] was determined as 5.25 ± 0.094.
In the case of NAMTCEGCKGFFRRSMKRKALFTC [VDR], the protein stability index by setting is: under setting [1], 2.38 ± 0.36; under setting [2], 2.22 ± 0.6.
For KVQFNLQFTKPNASLGDVQSGATI [SASS6] the same measures were 2.45 ± 0.37 and 2.66 ± 0.45.
Consider IHGENIICEATQIIDYLEQTFLDE [GDAP1], for which the protein stability index reads like this: under setting [1], 2.82 ± 0.22; under setting [2], 3.12 ± 0.21.
On to TNSTPLRAACFDGHLEIVKYLVEH [FEM1C], for which the protein stability index was 2.28 ± 0.49 under setting [1] and 2.39 ± 0.55 under setting [2].
With LASHLPVGVMLPHNTTEAPGPHSA [ZC2HC1C], the protein stability index runs as follows: under setting [1], 4.3 ± 0.21; under setting [2], 4.17 ± 0.21.
For FLIVTVAWAAHTRLFQVVGKTDDT [TMEM175] the same measures were 2.86 ± 0.12 and 3.12 ± 0.23.
Consider PPPPPLPDPTPPEPEEEILGSDDE [SRPK2], for which the protein stability index was determined as 5.51 ± 0.23 under setting [1] and 5.63 ± 0.19 under setting [2].
Regarding MVLAPVFGYLGDRYNRKYLMCGGI [SPNS1], the protein stability index runs as follows: under setting [1], 2.61 ± 0.058; under setting [2], 2.5 ± 0.84.
Take VAETECRYALQLQQIQGLISSIEA [KRT13]: the protein stability index under setting [1] was found to be 2.72 ± 0.15 and the protein stability index under setting [2] turned out to be 2.63 ± 0.2.
Consider PEWDTVTPEAKDLINKMLTINPSK [CAMK2A], for which the protein stability index runs as follows: under setting [1], 4.886 ± 0.036; under setting [2], 5.03 ± 0.12.
Regarding AQDSIELLTTSGIQFKKHEEEGIE [CNOT7], the protein stability index stood at 5.46 ± 0.24 under setting [1] and 5.48 ± 0.34 under setting [2].
For VNSNKVVMSGVKCSGTELSLAHCR [LOXL2] the same measures were 3.38 ± 1 and 2.95 ± 0.43.
For IIIRSEVPGIFCAGADLKERAKMS [AUH] the same measures were 2.36 ± 0.43 and 1.95 ± 0.21.
Turning to SLCVLVSTVGKLCRLINEDVNEQV [CEP70], the protein stability index came to 3.25 ± 0.48 under setting [1] and 2.96 ± 0.21 under setting [2].
RYSGKILKNNETLVQHGVKPQEIV [IQUB] showed a protein stability index under setting [1] of 3.42 ± 0.21 and a protein stability index under setting [2] of 3.71 ± 0.53.
For HRRIHTGEKPYECQDCGRAFNQNS [ZNF8], the protein stability index was 3.75 ± 0.53 under setting [1] and 4.1 ± 0.27 under setting [2].
Turning to FLELAVGQRIRRGSIGVWHYICPR [SLC6A17], the protein stability index is, setting by setting: under setting [1], 2.99 ± 0.97; under setting [2], 2.18 ± 0.5.
For KYLKKREDSIPLRGLSQNLFSNSD [SASS6] the same measures were 3.15 ± 0.2 and 3.4 ± 0.29.
Regarding ALATRALPCPAHVVFRYQGVRMS [FCHSD1], the protein stability index reads like this: (treatment: DMSO, c terminus: native) 3.1 ± 0.67; (treatment: MLN4924 1 uM, 8 h, c terminus: native) 2.58 ± 0.84.
On to WSGEVKDKNVQVVELPIVDSLHPR [FUT8], for which the protein stability index worked out at 4.17 ± 0.17 under setting [1] and 4.29 ± 0.15 under setting [2].
As for TVRGLHCMCTVGERLYVIGGNHFR [KLHL13], the protein stability index under setting [1] was determined as 2.12 ± 0.26 and the protein stability index under setting [2] was 2.18 ± 0.2.
For the sequence PTYKGLLMSLQNQLKESKSKIDAL [CEP70], the protein stability index by setting is: under setting [1], 2.45 ± 0.22; under setting [2], 2.86 ± 0.19.
On to VIDDAKQYVYIAVMDYLPISSTST [PLD5], for which the protein stability index reads like this: under setting [1], 2.54 ± 0.95; under setting [2], 2.76 ± 0.73.
With PMVLMIIVMCVQIKCFHEIITIGY [CDS2], the protein stability index amounted to 3.01 ± 0.43 under setting [1] and 3.14 ± 0.66 under setting [2].
For DFDLDLVPWESDIWDINNQICTVK [ATF6], the protein stability index by setting is: under setting [1], 3.06 ± 0.3; under setting [2], 3 ± 0.21.
For the sequence KVNSKKMLGKYNTPVSYRMAKTLV [ACSBG2], the protein stability index by setting is: under setting [1], 1.81 ± 0.082; under setting [2], 2.05 ± 0.42.
On to EAITSASFLEQIMAPLQPSTSRAH [FAM189A2], for which the protein stability index runs as follows: under setting [1], 3.52 ± 0.13; under setting [2], 3.59 ± 0.22.
Turning to TQQTGTVRFDGYVIDGATALWCAA [FEM1B], the protein stability index runs as follows: under setting [1], 2.3 ± 0.11; under setting [2], 2.22 ± 0.34.
For EGNECKKMDMSVLEISGIIMSRVN [PHTF1] the same measures were 2.55 ± 0.37 and 2.46 ± 0.31.
For the sequence LIETYTGLMSFIGNRNKLGYSLAR [TPRG1], the protein stability index was determined as 2.31 ± 0.31 under setting [1] and 2.21 ± 0.16 under setting [2].
With SLIFSLKNEVGGLIKALKIFQEKH [TPH1], the protein stability index by setting is: under setting [1], 2.07 ± 0.23; under setting [2], 2.75 ± 0.82.
On to SDLLNDQDLLDVIRIKLDPCHPTV [EDARADD], for which the protein stability index was determined as 2.67 ± 0.23 under setting [1] and 2.78 ± 0.21 under setting [2].
For HQMGVVHRDLKPENLLLASKLKGA [CAMK2A] the same measures were 3.73 ± 0.21 and 3.82 ± 0.12.
For the sequence YVQEKRDGLKRRQQLEEELLRAKI [RAD54B], the protein stability index runs as follows: under setting [1], 2.71 ± 0.66; under setting [2], 3.38 ± 0.78.
In the case of MSPESYLGSPQHSPSTRGSPNRSL [ATF4], the protein stability index under setting [1] came to 4.64 ± 0.19 and the protein stability index under setting [2] was 4.91 ± 0.3.
Consider KTSSSSKAGFTASPFTNLLNGSSQ [CDC14A], for which the protein stability index is, setting by setting: under setting [1], 3.46 ± 0.27; under setting [2], 3.51 ± 0.31.
For RKQILLRGKLKKTEEELRRIQTQK [ZC2HC1C] the same measures were 3.99 ± 0.24 and 4.2 ± 0.26.
On to PAGTPPPTARHFQEHPRQQLATSS [MOSPD3], for which the protein stability index by setting is: under setting [1], 4.74 ± 0.27; under setting [2], 4.83 ± 0.17.
On to CHICHKKLYTGPGLAIHCMQVHKE [ZNF207], for which the protein stability index by setting is: under setting [1], 3.07 ± 0.27; under setting [2], 3.25 ± 0.39.
As to YVFFVLAVMEHAESKMYATSPYSD [PTPRD], the protein stability index came out at 3.02 ± 0.82 under setting [1] and 3.28 ± 0.78 under setting [2].
On to LSSIKRDTNSIAKAIKARGEVIHC [STX11], for which the protein stability index runs as follows: under setting [1], 3.22 ± 0.19; under setting [2], 3.32 ± 0.2.
For GVYMTDITPQGVAMRAGVLADDHL [PDZK1] the same measures were 3.54 ± 0.46 and 3.34 ± 0.21.
With ASEEGSESEGSESSGRSCRNERSI [SMG5], the protein stability index runs as follows: under setting [1], 5.54 ± 0.3; under setting [2], 5.45 ± 0.31.
Take LCARLAAGPGAAEPLPVERDPAAG [ZNF511]: the protein stability index is, setting by setting: under setting [1], 4.47 ± 0.21; under setting [2], 4.6 ± 0.21.
